According to the supplement of paper PMC7125110:
± gives the standard error. For some of these results: Variants at the floor of the assay were thinned out.

B1: glmS ribozyme (parent)
chain: AUAAAAGCGCCAGAACUACAGAAAUGUAGUUGACGAGGAGGAGGUUUAUCGAAUUUUCGGCGGAUGCCUCCAAA

Experiments:
Conditions in all cases: with glucosamine-6-phosphate
glucosamine-6-phosphate [1] = variants of: B1; assay: kcat; higher = faster cleavage; RNA array
Method in brief: (§1)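 Sequenced MiSeq chips were the platform: E. coli RNA polymerase transcribed barcoded ribozyme variants on them in situ, and a hybridised Cy3 probe tracked these at 37 °C. After glucosamine-6-phosphate (40 μM to 10 mM) in HEPES/KCl/Mg(OAc)2 buffer was flowed in, tiles were imaged over ~14 h. Signals normalised to baseline and to non-cleaving reference variants were reduced to per-tile medians and fit to one- or two-exponential decays to obtain kobs. kcat and KM were derived through weighted Michaelis–Menten fits across concentrations.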

glucosamine-6-phosphate [2] = variants of: B1; assay: KM; higher = weaker cofactor use; RNA array
Method in brief: as §1

glucosamine-6-phosphate [3] = variants of: B1; assay: self-cleavage kobs at 40 uM GlcN6P; higher = faster cleavage; RNA array
Method in brief: as §1

glucosamine-6-phosphate [4] = variants of: B1; assay: self-cleavage kobs at 160 uM GlcN6P; higher = faster cleavage; RNA array
Method in brief: as §1

glucosamine-6-phosphate [5] = variants of: B1; assay: self-cleavage kobs at 640 uM GlcN6P; higher = faster cleavage; RNA array
Method in brief: as §1

glucosamine-6-phosphate [6] = variants of: B1; assay: self-cleavage kobs at 2500 uM GlcN6P; higher = faster cleavage; RNA array
Method in brief: as §1

glucosamine-6-phosphate [7] = variants of: B1; assay: self-cleavage kobs at 10000 uM GlcN6P; higher = faster cleavage; RNA array
Method in brief: as §1

Variant | kcat (glucosamine-6-phosphate [1]) | KM (glucosamine-6-phosphate [2]) | self-cleavage kobs at 40 uM GlcN6P (glucosamine-6-phosphate [3]) | self-cleavage kobs at 160 uM GlcN6P (glucosamine-6-phosphate [4]) | self-cleavage kobs at 640 uM GlcN6P (glucosamine-6-phosphate [5]) | self-cleavage kobs at 2500 uM GlcN6P (glucosamine-6-phosphate [6]) | self-cleavage kobs at 10000 uM GlcN6P (glucosamine-6-phosphate [7])
G32A A53G | 0.00285 ± 0.00095 s⁻¹ | 1980 ± 950 µM | 5.52e-05 ± 9e-06 s⁻¹ | 0.000222 ± 3.2e-05 s⁻¹ | 0.00114 ± 0.0002 s⁻¹ | 0.00106 ± 0.00021 s⁻¹ | 0.00294 ± 0.00036 s⁻¹
A12U U65G | 0.00705 ± 0.00071 s⁻¹ | 4650 ± 730 µM | 5.57e-05 ± 9.8e-06 s⁻¹ | 0.000303 ± 6.4e-05 s⁻¹ | 0.000829 ± 0.00018 s⁻¹ | 0.00239 ± 0.00046 s⁻¹ | 0.00483 ± 0.00044 s⁻¹
A33C G66A | 0.000291 ± 4.1e-05 s⁻¹ | 2470 ± 580 µM | – | – | 6.35e-05 ± 9.2e-06 s⁻¹ | 0.00013 ± 2.3e-05 s⁻¹ | 0.000257 ± 4.6e-05 s⁻¹
U30C G37A | 2.63e-05 ± 1.2e-06 s⁻¹ | 710 ± 290 µM | – | – | – | – | 2.44e-05 ± 9e-06 s⁻¹
A15U U30G | 0.0605 ± 0.018 s⁻¹ | 3400 ± 1200 µM | 0.000777 ± 7.3e-05 s⁻¹ | 0.00242 ± 0.00032 s⁻¹ | 0.00977 ± 0.0011 s⁻¹ | 0.0219 ± 0.0035 s⁻¹ | 0.0582 ± 0.012 s⁻¹
A52G C70U | 0.00261 ± 0.00024 s⁻¹ | 3870 ± 600 µM | 2.96e-05 ± 5.4e-06 s⁻¹ | 0.000108 ± 3.7e-05 s⁻¹ | 0.00037 ± 6.1e-05 s⁻¹ | 0.000878 ± 0.00015 s⁻¹ | 0.00194 ± 0.00018 s⁻¹
A39G G43A | 0.0004 ± 8.6e-05 s⁻¹ | 5960 ± 2100 µM | – | – | 5.25e-05 ± 1.8e-05 s⁻¹ | 0.000109 ± 2.1e-05 s⁻¹ | 0.000259 ± 4.9e-05 s⁻¹
G29A U31A | 0.00193 ± 0.00042 s⁻¹ | 1110 ± 410 µM | 6.33e-05 ± 1.9e-05 s⁻¹ | 0.000184 ± 7.5e-05 s⁻¹ | 0.00109 ± 0.00022 s⁻¹ | 0.00129 ± 0.00029 s⁻¹ | 0.00165 ± 0.00037 s⁻¹
A42C G66U | 1.53e-05 ± 2e-06 s⁻¹ | – | – | – | – | – | –
C50A U54G U55C | 1.47e-05 ± 3.9e-06 s⁻¹ | – | – | – | – | – | –
A33C G38U | < 1e-05 s⁻¹ | – | < 1e-05 s⁻¹ | < 1e-05 s⁻¹ | < 1e-05 s⁻¹ | – | < 1e-05 s⁻¹
G29A G40A | 0.000354 ± 5.1e-05 s⁻¹ | 1090 ± 350 µM | – | 3.78e-05 ± 1.7e-05 s⁻¹ | 0.000154 ± 2.9e-05 s⁻¹ | 0.000222 ± 3.7e-05 s⁻¹ | 0.000353 ± 7.2e-05 s⁻¹
A12G U56A | 0.00105 ± 0.00021 s⁻¹ | 7960 ± 2300 µM | – | 4.26e-05 ± 1.7e-05 s⁻¹ | 7.85e-05 ± 1.1e-05 s⁻¹ | 0.000221 ± 4.8e-05 s⁻¹ | 0.000592 ± 6.2e-05 s⁻¹
C50U A64G | 0.000283 ± 5e-05 s⁻¹ | – | – | – | 2.41e-05 ± 1e-05 s⁻¹ | 5.38e-05 ± 7.8e-06 s⁻¹ | 0.000141 ± 1.7e-05 s⁻¹
A12G C58A | 0.000476 ± 0.0001 s⁻¹ | 1510 ± 610 µM | – | 4.69e-05 ± 1.3e-05 s⁻¹ | 0.000154 ± 1.7e-05 s⁻¹ | 0.000245 ± 3.3e-05 s⁻¹ | 0.000523 ± 7.4e-05 s⁻¹
U46C A53G | 0.00366 ± 0.0005 s⁻¹ | 1430 ± 280 µM | 8.69e-05 ± 1.5e-05 s⁻¹ | 0.000402 ± 6.7e-05 s⁻¹ | 0.00119 ± 0.00015 s⁻¹ | 0.0025 ± 0.00035 s⁻¹ | 0.00272 ± 0.00067 s⁻¹
G66C C67U | 2.82e-05 ± 1.9e-06 s⁻¹ | 1800 ± 520 µM | – | – | – | – | 2.37e-05 ± 7.3e-06 s⁻¹
A12C U30A | 0.00751 ± 0.0021 s⁻¹ | 7100 ± 2600 µM | 5.95e-05 ± 1.5e-05 s⁻¹ | 0.000144 ± 3e-05 s⁻¹ | 0.000745 ± 0.0002 s⁻¹ | 0.0017 ± 0.00056 s⁻¹ | 0.00447 ± 0.00074 s⁻¹
G51U C67A C71U | 2.47e-05 ± 3.5e-06 s⁻¹ | – | – | – | – | – | –
A14C U46A | 0.000352 ± 1.6e-05 s⁻¹ | 1880 ± 170 µM | – | – | 9.13e-05 ± 1e-05 s⁻¹ | 0.000194 ± 2.1e-05 s⁻¹ | 0.000301 ± 3.2e-05 s⁻¹
G29U C67A | 0.000685 ± 0.00017 s⁻¹ | 812 ± 370 µM | 5.58e-05 ± 7.8e-06 s⁻¹ | 9.85e-05 ± 1.4e-05 s⁻¹ | 0.000276 ± 3.9e-05 s⁻¹ | 0.000437 ± 5.6e-05 s⁻¹ | 0.000787 ± 8.4e-05 s⁻¹
U65A C70A | 7.41e-05 ± 5e-06 s⁻¹ | 128 ± 49 µM | – | 4.4e-05 ± 1.4e-05 s⁻¹ | 5.79e-05 ± 1.2e-05 s⁻¹ | 6.44e-05 ± 1.3e-05 s⁻¹ | 8.15e-05 ± 1.3e-05 s⁻¹
A48G C67G | 5.64e-05 ± 1.8e-05 s⁻¹ | – | – | < 1e-05 s⁻¹ | 3.36e-05 ± 1.6e-05 s⁻¹ | 7.99e-05 ± 1.9e-05 s⁻¹ | 4.41e-05 ± 1.4e-05 s⁻¹
G13U U45A | 0.00214 ± 0.00039 s⁻¹ | 2010 ± 490 µM | 4.66e-05 ± 2.1e-05 s⁻¹ | 0.000142 ± 5.1e-05 s⁻¹ | 0.000543 ± 0.00015 s⁻¹ | 0.00117 ± 0.00036 s⁻¹ | –
A48C C70U | 0.000564 ± 5.5e-05 s⁻¹ | 3470 ± 540 µM | – | – | 8.59e-05 ± 1.5e-05 s⁻¹ | 0.000254 ± 3.9e-05 s⁻¹ | 0.000401 ± 7.4e-05 s⁻¹
G41U U46C | 8.91e-05 ± 1.3e-06 s⁻¹ | 676 ± 50 µM | – | – | 4.34e-05 ± 1.9e-05 s⁻¹ | 7.05e-05 ± 1.8e-05 s⁻¹ | 8.33e-05 ± 1.3e-05 s⁻¹
C16A U57A | 2.09e-05 ± 4.3e-06 s⁻¹ | – | < 1e-05 s⁻¹ | < 1e-05 s⁻¹ | – | – | –
A48G C70G | 6.2e-05 ± 1.1e-05 s⁻¹ | – | – | – | 8.57e-05 ± 1.8e-05 s⁻¹ | 7.26e-05 ± 1.6e-05 s⁻¹ | 5.25e-05 ± 9.4e-06 s⁻¹
G59U C68U | 1.5e-05 ± 6.2e-06 s⁻¹ | – | < 1e-05 s⁻¹ | – | – | 2.67e-05 ± 1.3e-05 s⁻¹ | –
G51A C68G | 3.03e-05 ± 1.4e-05 s⁻¹ | – | – | – | – | – | –
